{"source": "patent US20220144934A1", "about": "(Janssen / Centocor, published 2022)", "binders": {"B1": {"name": "GenTNV148.26.12 (antibody, human IgG1, kappa, V domains shown)", "VH": "QVQLVESGGGVVQPGRSLRLSCAASGFIFSSYAMHWVRQAPGNGLEWVAFMSYDGSNKKYADSVKGRFTISRDNPKNTLYLQMNSLRAEDTAVYYCARDRGIAAGGNYYYYGMDVWGQGTTVTVSS", "VL": "EIVLTQSPATLSLSPGERATLSCRASQSVYSYLAWYQQKPGQAPRLLIYDASNRATGIPARFSGSGSGTDFTLTISSLEPEDFAVYYCQQRSNWPPFTFGPGTKVDIKR", "notes": "also called C420A"}, "B2": {"name": "GenTNV86.14.34 (antibody, human IgG1, kappa, V domains shown)", "VH": "QVQLVESGGGVVQPGRSLRLSCAASGFIFSSYAMHWVRQAPGNGLEWVAFMSYDGSNKKYADSVKGRFTISRDNPKNTLYLQMNSLRAEDTAVYYCARDRGIAAGGNYYYYGMDVWGQGTTVTVSS", "VL": "EIVLTQSPATLSLSPGERATLSCRASQSVYSYLAWYQQKPGQAPRLLIYDASNRATGIPARFSGSGSGTDFTLTISSLEPEDFAVYYCQQRSNWPPFTFGPGTKVDIKR", "notes": "also called C417A"}, "B3": {"name": "golimumab (antibody, human IgG1, kappa, V domains shown)", "VH": "QVQLVESGGGVVQPGRSLRLSCAASGFIFSSYAMHWVRQAPGNGLEWVAFMSYDGSNKKYADSVKGRFTISRDNSKNTLYLQMNSLRAEDTAVYYCARDRGIAAGGNYYYYGMDVWGQGTTVTVSS", "VL": "EIVLTQSPATLSLSPGERATLSCRASQSVYSYLAWYQQKPGQAPRLLIYDASNRATGIPARFSGSGSGTDFTLTISSLEPEDFAVYYCQQRSNWPPFTFGPGTKVDIKR", "modifications": "partial cyclic succinimide at LC Asn93 (LC cycAsn93); N-glycosylated on asparagine 306; partial deamidation of HC Asn43", "notes": "Fully human IgG1 kappa, produced in Sp2/0 cells; also called SIMPONI"}}, "key": {"recombinant human TNFα [1]": {"target": "T1, recombinant human TNFα (human, UniProt P01375 77-233, 125I-labeled in the receptor-blocking assay ; 125I-labelled (positions not stated) only in the receptor-blocking assay; soluble homotrimer of this 17 kD subunit)", "experiment": "cell-based or functional assay"}, "recombinant human TNFα [2]": {"target": "T1, recombinant human TNFα", "experiment": "inhibition of 125I-TNFα binding to plate-coated p55-sf2 by hybridoma supernatant", "method": "(§1) Although eight TNV mAb samples were tested in these experiments, for simplicity three of the mAbs that were shown by DNA sequence analyses to be identical to one of the other TNV mAbs (see Section 5.2.2) are not shown here. Each sample was tested in duplicate. The results shown are representative of two independent experiments.\n(§2) 50:1 of p55-sf2 at 0.5 :g/ml in PBS was added to Optiplates to coat the wells during a one-hour incubation at 37° C. Serial dilutions of the eight TNV cell supernatants were prepared in 96-well round-bottom plates using PBS/0.1% BSA as diluent. […] The mixture was preincubated for one hour at RT. […] After 2 hrs at RT, Optiplates were washed three times with PBS-Tween. […] of Microscint-20 was added and the cpm bound determined using the TopCount gamma counter."}, "recombinant human TNFα [3]": {"target": "T1, recombinant human TNFα", "experiment": "competition radioligand assay: mAb in hybridoma supernatant preincubated with 5 ng/ml 125I-TNFα, then 125I-TNFα bound to plate-coated p55-sf2 (TNF receptor/IgG fusion) counted as cpm", "method": "as §1, §2"}, "human lymphotoxin": {"target": "T2, human lymphotoxin (human, UniProt P01374 35-205, limits assumed)", "T2 sequence (looked up)": "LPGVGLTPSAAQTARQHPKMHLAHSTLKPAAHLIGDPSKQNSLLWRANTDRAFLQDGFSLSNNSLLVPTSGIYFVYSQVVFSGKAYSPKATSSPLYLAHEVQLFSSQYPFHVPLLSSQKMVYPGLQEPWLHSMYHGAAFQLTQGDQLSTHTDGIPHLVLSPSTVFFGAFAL", "experiment": "not described"}}, "data": [{"binder": "B1", "values": [{"measurement": "neutralizing TNFα bioactivity (potency relative to TNV14)", "setting": "recombinant human TNFα [1]", "value": 4, "unit": "fold"}, {"measurement": "fold better at blocking TNF binding than TNV118 and TNV14", "setting": "recombinant human TNFα [2]", "value": "~4", "unit": "fold"}, {"measurement": "IC50 (read off the curve)", "setting": "recombinant human TNFα [3]", "value": "~3", "unit": "ng/mL"}]}, {"binder": "B2", "values": [{"measurement": "fold better at blocking TNF binding than TNV118 and TNV14", "setting": "recombinant human TNFα [2]", "value": "~4", "unit": "fold"}]}, {"binder": "B3", "values": [{"measurement": "binding result", "setting": "human lymphotoxin", "value": "no binding"}]}]}
